Source: the nanobody polyreactivity screen of Harvey et al. (2022)

Test: yeast display, Sf9 membrane polyspecificity reagent, FACS + sequencing; frameworks hold sequencing errors
In short: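 Nanobodies came from a synthetic yeast display library in Saccharomyces cerevisiae BJ5465, induced with galactose for 36–48 hours and stained for 1 hour at 4 °C with 10% biotinylated, detergent-solubilized Sf9 membrane reagent. Cells were enriched on streptavidin microbeads and then FACS-sorted, with low and high (top ~1%) gates set on anti-HA fluorescence for expression and streptavidin fluorescence for reagent binding. Each polyreactivity label reflects the gate a clone came from. Genes were amplified by colony PCR, sequenced by MiSeq 2 × 250 and filtered by CDR length.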

QVQLVESGGGLVQAGGSLRLSCAASGRIFRPYAMGWYRQAPGKERELVASITRGGSTDYADSVKGRFTISRDNAKNTVYLQMNSLKPEDTAVYYCNKVWRFGYYGSYYWGQGTQVTVSS
polyreactivity (PSR sort gate): high polyreactivity

QVQLVESGGGLVQAGGSLRLSCAASGRIFRPYVMGWYRQAPGKERELVAAISYRGSSTYYADSVKGRFTISRDNAKNTVYLQMNSLKPEDTAVYYCAAYPRVYWTKEYDYWGQGTQVTVSS
polyreactivity (PSR sort gate): high polyreactivity

QVQLVESGGGLVQAGGSLRLSCAASGRIFRQYAMGLYRQAPGKERELVAAISRRGTSTYYADSVKGRFTISRDNAKNTVYLQMNSLKPEDTAVYYCAAGGVYSIYRTSRVGYDYWGQGTQVTVSS
polyreactivity (PSR sort gate): high polyreactivity

QVQLVESGGGLVQAGGSLRLSCAASGRIFRRNAMGWYRQAPGKERELVASITRGGRTSYADSVKGRFTISRDNAKNTVYLQMNSLKPEDTAVYYCNARSYQSARFRGGYWGQGTQVTVSS
polyreactivity (PSR sort gate): high polyreactivity

QVQLVESGGGLVQAGGSLRLSCAASGRIFRRSALGWSRQAPGKEREFVAAISSGGSTYYADSVKGRFTISRDNAKKYRLFTDEQPETGRYRGLLLRCVRYDVNLYDYWGHGTQVTVSS
polyreactivity (PSR sort gate): low polyreactivity

QVQLVESGGGLVQAGGSLRLSCAASGRIFRRYAMGWYRQAHGKERELVAAITSGGRTYYADSVKGRFTISRDNAKNTVYLQMNSLKPEDTAVYYCAAKWTVGELDYWGQGTQVTVSS
polyreactivity (PSR sort gate): high polyreactivity

QVQLVESGGGLVQAGGSLRLSCAASGRIFRRYAMGWYRQAPGKEREFVAAITKSGGSTYYADSVKGRFTISRDNAKNTVYLQMNSLKPEDTAVYDCNAYVIRALGYGGYDYWGQGTQVTVSS
polyreactivity (PSR sort gate): high polyreactivity

QVQLVESGGGLVQAGGSLRLSCAASGRIFRRYAMGWYRQAPGKEREFVAAITWSGSSTYYADSVKGRFTISRDNAKNTVYLQMNSLKPEDTAVYYCAARHYAVRRSRYPGKLGYYWGQGTQVTVSS
polyreactivity (PSR sort gate): high polyreactivity

QVQLVESGGGLVQAGGSLRLSCAASGRIFRRYASGWYRQAPGKEMELDADITYGVDSTYYADSVKGRFTISRDNAKNTVYLQMNSLKPEDTAVYYCIADRTEDMLYRFVGVTYGYWGQGTQVTVSS
polyreactivity (PSR sort gate): high polyreactivity

QVQLVESGGGLVQAGGSLRLSCAASGRIFRRYTMGWYRQAPGKERELVAAISSGGSTYYADSVKGRFTISRDNAKNTVYLQMNSLKPEDTAVYYCNADSRSQPYYPEFDYWGQGTQVTVSS
polyreactivity (PSR sort gate): low polyreactivity

QVQLVESGGGLVQAGGSLRLSCAASGRIFRRYTMGWYRQAPGKERELVAAISSGGTTYYADSVKGRFTISRDNAKNTVYLQMNSLKPEDTAVYYCAAPWRSSIPHYEYWGQGTQVTVSS
polyreactivity (PSR sort gate): high polyreactivity

QVQLVESGGGLVQAGGSLRLSCAASGRIFRRYVMGWYRQAPGKERELVARIRIRDSNTYYADSVKGRFTISRDNAKNTVYLQMNSLKPEDTAVYYCNADTWADRSTYDYWGQGTQVTVSS
polyreactivity (PSR sort gate): low polyreactivity

QVQLVESGGGLVQAGGSLRLSCAASGRIFRSNGMGWYRQAPGKERELVAAITYRGGNTYYADSVKGRFTISRDNAKNTVYFQMNSLKPEDTAVYYCANQGVRRHYGYDYWGQGTQVTVSS
polyreactivity (PSR sort gate): high polyreactivity

QVQLVESGGGLVQAGGSLRLSCAASGRIFRTKAMGWYRLAPGKERELVAAITFSGGGTYYADSVKGRFTISRDNAKNTVYLQMNSLKPEDTAVYYCATDWYYEYYYWGQGTQVTVSS
polyreactivity (PSR sort gate): low polyreactivity

QVQLVESGGGLVQAGGSLRLSCAASGRIFRTNAMGWYRQAHGKEWELVAAITRGGTTNYADSVKGRFTISRDNAKNTVYLQMNSLKPEDTAVYYCAVDQGYVVRLAWIYGYWGQGTQVTVSS
polyreactivity (PSR sort gate): low polyreactivity

QVQLVESGGGLVQAGGSLRLSCAASGRIFRTYAMGWYRQAPGKERELVDAISYSGGSTFYADSVKRRFTISRDNAKNTVYLQMNSLKPEYTAVYYCAADSRAKRYYWGQGTQVTVSS
polyreactivity (PSR sort gate): high polyreactivity

QVQLVESGGGLVQAGGSLRLSCAASGRIFRTYTMGWYRQAPGKERELVAAISRSGASTYYADSVKGRFTISRDNAKNTVYLQMNSLKPEDTAVYYCAKLILSTALVSRPGVDYWGQGTQVTVSS
polyreactivity (PSR sort gate): high polyreactivity

QVQLVESGGGLVQAGGSLRLSCAASGRIFRVNALGWYRQATRKERELVAGITQGDGSTYYADSVKGRFTISRDNAKNTVYLQMNSLKPEDTAVYYCAAEGFYTTGSPYSGGLDYWGQGTQVTVSS
polyreactivity (PSR sort gate): low polyreactivity

QVQLVESGGGLVQAGGSLRLSCAASGRIFRVNAMGWYRQAPGKERELVAAINFSGTSTYYADSVKGRFTISRDNAKNTVYLQMNSLKPEDTAVYYCNALTTSNSGRFYYWGQGTQVTVSS
polyreactivity (PSR sort gate): low polyreactivity

QVQLVESGGGLVQAGGSLRLSCAASGRIFRVNAMGWYRQAPGKERELVATITGSGGSTYYADSVKGRFTISRDNAKNTVYLQMNSLKPEDTAVYYCAAVSYWPTDRYYSWGQGTQVTVSS
polyreactivity (PSR sort gate): low polyreactivity

QVQLVESGGGLVQAGGSLRLSCAASGRIFRVYAMGWYRQAPGKERELVAVISARGGNTYYADSVKGRFTISRDNAKNTVYLQMNSMKPEDTAVYYCAARGRMDYWGQGTQVTVSS
polyreactivity (PSR sort gate): high polyreactivity

QVQLVESGGGLVQAGGSLRLSCAASGRIFRWNAMGWYRQAPGKERELVAAISRSGGSTYYADSVKRRFTISRDNAKNTVYLQMNSLKPEDTAVYYCNTRFSTFTAPGYYYWGQGTQVTVSS
polyreactivity (PSR sort gate): high polyreactivity

QVQLVESGGGLVQAGGSLRLSCAASGRIFRWYAMGWNRQAPGQERELVAAITRGDITNYADSVKGRFTISRDNAKNTVYLQMNSLKPEDTAVYYCNAQWYDIYDYWGQGSQVTVSS
polyreactivity (PSR sort gate): high polyreactivity

QVQLVESGGGLVQAGGSLRLSCAASGRIFRWYAMGWYRQAPGKEREIVAAITSSGGSTYYADSVKGRFTISRDNAKNTVYLQMNSLKPEDTAFYYCAALLYLGGSYSRGYYWGQGTQVTVSS
polyreactivity (PSR sort gate): high polyreactivity

QVQLVESGGGLVQAGGSLRLSCAASGRIFRWYAMGWYRQAPGKERELVAAISYSGGSTYYADSVKGRFTISRDNAKNTVYLQMNRLKPEDTAVYYCNAVLYTPVYDGFDSWGQGTQVTVSS
polyreactivity (PSR sort gate): high polyreactivity

QVQLVESGGGLVQAGGSLRLSCAASGRIFRWYAMGWYRQAPGKERELVATISSTGGSTYYADSVKGRFTISRDNAKNTVYLQMNSLKPEDTAVYYCAVDPRGHEGVRYNYWGQGTQVTVSS
polyreactivity (PSR sort gate): low polyreactivity

QVQLVESGGGLVQAGGSLRLSCAASGRIFRYKAMGWYRQAPGKERELVAAISGSGGSTYYADSVKGRFTISRDNAKNTVYLQMNSLKPEDTAVYYCNALYWIFNHGGYDYWGQGTQVTVSS
polyreactivity (PSR sort gate): low polyreactivity

QVQLVESGGGLVQAGGSLRLSCAASGRIFRYNAMGLYRQAPGKERELVAAISRGGSSTYYADSVKGRFTISRDNAKNTVYLQMNSLKPEDTAVYYCNARSVVREFNYWGQGTQVTVSS
polyreactivity (PSR sort gate): high polyreactivity

QVQLVESGGGLVQAGGSLRLSCAASGRIFRYNAMGWYRQAPGKERELVAAISFSTTSPYYADSVKGRFTISRDNAKNTVYLQMNSLKPEDTAVYNCNTPGLPIDSEYDYWGQGTQVTVSS
polyreactivity (PSR sort gate): low polyreactivity

QVQLVESGGGLVQAGGSLRLSCAASGRIFRYNAMGWYRQAPGKERELVAAISTSGTRTFYADSVKGRFTISRDNAMKTVYLQMNSVKPEDTAVYYCNKVAGPGKLGPYYYWGQGTQVTVSS
polyreactivity (PSR sort gate): high polyreactivity

QVQLVESGGGLVQAGGSLRLSCAASGRIFRYNAMGWYRQAPGKERELVAAITNGGSTNYADSVKGRFTISRDNAKNTVYLQMNSLKPEDTAVYYCNAQGRRYSQRYYYWGQGTQVTVSS
polyreactivity (PSR sort gate): high polyreactivity

QVQLVESGGGLVQAGGSLRLSCAASGRIFRYNAMGWYRQAPGKERELVASITSAGSTIYADSVKGRFTISRDNAKNTVYLQMNSLKPEDTAVYYCNKRRAYGYYLFDYWGQGTQVTVSS
polyreactivity (PSR sort gate): high polyreactivity

QVQLVESGGGLVQAGGSLRLSCAASGRIFRYNAMGWYRQAPGKERELVATISRGGGSTYYADSVKGRFTISLDNAKNTVYLQMNSLKPEDTAVYYCATRYYQDIVGYSRYDYWGQGTQVTVSS
polyreactivity (PSR sort gate): high polyreactivity

QVQLVESGGGLVQAGGSLRLSCAASGRIFRYNTMGWYRQAHGKERELVAAIDRGSSTNYADSVKGRFTISRDNAKNTVYLQMNSLKPEDTAVYYCAARVFRPYGSLYDYWGQGTQVTVSS
polyreactivity (PSR sort gate): high polyreactivity

QVQLVESGGGLVQAGGSLRLSCAASGRIFRYYAKGWYRQATGKERELVAAISWSGGSTYYADSVKGRFTISRDNAKNTVYLQMHSLKPEDTAVYYCNAAVTQFTHRWRRRITFDYWGQGTQVTVSS
polyreactivity (PSR sort gate): high polyreactivity

QVQLVESGGGLVQAGGSLRLSCAASGRIFRYYAMGWYRPAPGKERELVAAITRSGGITYYADSVKGRFTISRDNAKNTVYLQLNSLKPEDTAVYYCAVRGAGWPSVRAFGYDYWGQGTQVTVSS
polyreactivity (PSR sort gate): high polyreactivity

QVQLVESGGGLVQAGGSLRLSCAASGRIFRYYAMGWYRQAPGKEREFVAGISWRGSSTYYADSVKGRFTISRDNAKNTVYLQMNSLKPEDTAVYYCNRDQSNIPVTGGRFYYWGQGTQVTVSS
polyreactivity (PSR sort gate): high polyreactivity

QVQLVESGGGLVQAGGSLRLSCAASGRIFRYYAMGWYRQAPGKERELVAAINSGGSTKYADSVKGRFTISRDNAKNTVYLQMNSLKPEDTAVYYCAAVYTPDSRYDYWGQGTQVTVSS
polyreactivity (PSR sort gate): high polyreactivity

QVQLVESGGGLVQAGGSLRLSCAASGRIFRYYAMGWYRQAPGKERELVAAISDSSGSTYYADSVKGRFTISRDNAKNTVYLQMNSLKPEDTAVYYCRYYFGSGFYYWGQGTQVTVSS
polyreactivity (PSR sort gate): high polyreactivity

QVQLVESGGGLVQAGGSLRLSCAASGRIFRYYAMGWYRQAPGKERELVAAISRGGSTNYADSVKGRFTISRDNAKNTVYLQMNSLKPEDTAVYYCAAVYHSRVWYGYDSKFEYWGQGTQVTVSS
polyreactivity (PSR sort gate): high polyreactivity

QVQLVESGGGLVQAGGSLRLSCAASGRIFRYYAMGWYRQAPGKERELVAAISSRGGSTYYADSVKGRFTISRDNAKNSVYLQMNSLKPEDTAVYFCDKAVFYGPSERNYGLDYWGQGTQVTVSS
polyreactivity (PSR sort gate): high polyreactivity

QVQLVESGGGLVQAGGSLRLSCAASGRIFRYYAMGWYRQAPGKERELVAAITRGGSTNYADSVKGRFTISRDNAKNTVYLQMNSLKPEDTAVYYCAVRGGYTWPTYNYWGQGTQVTVSS
polyreactivity (PSR sort gate): high polyreactivity

QVQLVESGGGLVQAGGSLRLSCAASGRIFRYYAMGWYRQAPGKERELVASISSGGSTNYADSVKGRFTISRDNAKNTVYLQMNSLKPEDTAVYYCATVRRSTGGRLYYWGQGTQVTVSS
polyreactivity (PSR sort gate): high polyreactivity
